Reference: the supplement of paper PMC10567573

B1: ZBED2 (parent)
chain: FHLAPARAGHHPNQYATCRLCGRQ

Variants of: B1
Test: protein stability index of a GFP-peptide fusion (GPS, HEK-293T) (PSI 1-6); higher = more stable
Conditions: c terminus: a fixed tail appended
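Further: lentivirally expressed fusions sorted by FACS into six bins by GFP to DsRed ratio, PSI derived from sequencing read proportions per bin multiplied by bin number.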

Protein stability index of substitutions, site by site:
P5: R 1.64 | L 2 | T 2.32 | Y 1.52 | N 1.84
H10: R 1.21 | F 1.9 | T 3.52 | S 2.24 | I 2.3 | K 2.63 | P 2.05 | A 1.22 | W 1.78 | C 2.01 | E 2.32 | G 1.34 | D 1.27 | V 1.19 | L 1.7 | M 2.81 | Y 1.7 | Q 2.13 | N 1.55
T17: K 1.72 | G 2.76 | L 1.25 | P 1.69 | F 2.23 | N 1.99 | M 2.42 | D 2.85 | E 1.73 | Y 2.15 | C 1.68 | S 2.47 | I 1.55
F1: T 2.45 | M 2.1 | K 2.53 | P 3.07 | L 2.13 | V 2.74 | I 2.21 | W 1.59 | S 3.33 | N 2.73 | R 2.77 | Y 1.43 | Q 2.78
H11: D 1.46 | A 2.48 | I 1.33 | N 1.39 | F 1.98 | V 1.98 | M 2.35 | W 1.04 | K 1.58 | Q 1.29 | G 2.01 | E 2.04 | T 1.95 | P 1.4 | C 2.12
A8: N 2.31 | L 2.47 | Q 2.02 | H 1.75 | C 3.28 | Y 3.15 | F 2.6 | W 3.08 | I 2.73 | M 2.75 | T 1.83 | K 1.69 | R 1.3 | S 1.76 | P 2.56 | D 1.36 | V 1.65 | G 2.87 | E 2.34
P12: L 2.12 | A 1.5 | W 1.52 | C 2.67 | H 3.06 | F 2.1 | I 1.95 | Y 1.47 | G 2.48 | S 2.23 | V 1.49
R23: Q 2.43 | F 2.1 | K 1.37 | A 1.85 | M 1.81 | E 1.54 | C 1.32 | D 2 | N 2.07 | I 1.93
R7: V 1.73 | G 2.22 | K 2.59 | L 1.92 | Y 2.09 | H 2.61 | M 2.13 | E 2.04 | D 2.34 | N 2.15 | C 3.77 | Q 1.93 | I 1.55 | P 1.92 | S 1.4 | T 2.1 | A 1.74 | F 2.11
H2: K 1.95 | E 2.6 | C 1.66 | T 2.76 | D 2.41 | P 2.78 | A 1.46 | L 1.86 | M 2.43 | I 2.37 | F 1.42 | W 1.26 | Q 2.51 | N 2.65 | G 1.88 | S 1.59
A16: I 2.69 | E 1.93 | F 2.37 | H 2.27 | T 2.3 | L 1.42 | M 1.61 | K 1.03 | C 2.85 | Y 2.9 | S 1.82 | G 1.59 | N 2.38 | P 2.4
L20: Q 1.18 | C 1.54 | D 1.27 | N 1.31 | H 1.55 | Y 3.71 | V 2.27 | M 1.94 | S 2.22 | F 2.4 | R 1.92 | G 2.82 | P 2.23 | T 1.82
